This note sets out measurements from patent US20240270821A1, “GIP/GLP1/GCG TRI-RECEPTOR AGONISTS AND USES THEREOF” (priority 2023, published 2024).

T1: human GIP receptor (human) (UniProt P48546)
T1 sequence (looked up): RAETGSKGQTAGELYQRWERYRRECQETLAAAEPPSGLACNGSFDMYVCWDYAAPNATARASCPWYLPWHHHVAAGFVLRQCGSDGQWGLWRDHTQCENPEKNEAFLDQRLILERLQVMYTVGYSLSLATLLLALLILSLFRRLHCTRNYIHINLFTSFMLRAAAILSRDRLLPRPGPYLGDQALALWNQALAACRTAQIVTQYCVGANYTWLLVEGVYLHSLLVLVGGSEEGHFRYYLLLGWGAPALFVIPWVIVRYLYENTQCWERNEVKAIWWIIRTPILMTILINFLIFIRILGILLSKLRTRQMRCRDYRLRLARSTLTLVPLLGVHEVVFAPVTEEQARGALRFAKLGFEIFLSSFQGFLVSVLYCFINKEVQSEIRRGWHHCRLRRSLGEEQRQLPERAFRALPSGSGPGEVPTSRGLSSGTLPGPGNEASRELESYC

B1: Example 223 (peptide)
chain: YXQGTFTSDXSXXLDKKAQXAFIEYLIEXGESSGAPPPSGS
modifications: Aib, 4Pal, Orn, αMeL, αMe4Pal, acylated Lys, amide; synthetic construct; SITE 2: note = 2-Aminoisobutyric Acid; SITE 10: note = 3-(4-Pyridyl)-L-alanine; SITE 12: note = L-ornithine; SITE 13: note = alpha-methyl-leucine; SITE 17: note = Lysine is chemically modified through conjugation of the epsilon-amino group of the Lysine side chain with (2-[2-(2-
B2: Example 227 (peptide)
chain: B1 chain with X12Q, S41E
modifications: Aib, 4Pal, αMeL, αMe4Pal; K acylated AEEA-γGlu-C18 diacid; amide; synthetic construct; SITE 2: note = 2-Aminoisobutyric Acid; SITE 10: note = 3-(4-Pyridyl)-L-alanine; SITE 13: note = alpha-methyl-leucine; SITE 17: note = Lysine is chemically modified through conjugation of the epsilon-amino group of the Lysine side chain with (2-[2-(2-Amino-ethoxy)-ethoxy]-acetyl)
B3: Example 217 (peptide)
chain: B1 chain with X10F, X12K, S41E
modifications: Aib, αMeL, acylated Lys (AEEA-γGlu-C18 diacid), C-terminal amide; synthetic construct; SITE 2: note = 2-Aminoisobutyric Acid; SITE 13: note = alpha-methyl-leucine; SITE 17: note = Lysine is chemically modified through conjugation of the epsilon-amino group of the Lysine side chain with (2-[2-(2-Amino-ethoxy)-ethoxy]-acetyl)-(gamma-Glu)-CO-(CH2) 16-CO2H; SITE 20: n
B4: Example 224 (peptide)
chain: B1 chain with X12R
modifications: non-natural residues, C-terminal amide, acylated Lys with fatty diacid; synthetic construct; SITE 2: note = 2-Aminoisobutyric Acid; SITE 10: note = 3-(4-Pyridyl)-L-alanine; SITE 13: note = alpha-methyl-leucine; SITE 17: note = Lysine is chemically modified through conjugation of the epsilon-amino group of the Lysine side chain with (2-[2-(2-Amino-ethoxy)-ethoxy]-acetyl)
B5: Example 230 (peptide)
chain: B1 chain with X10F, X12R
modifications: non-natural residues, AEEA-γGlu-C18 diacid acyl on K, C-terminal amide; synthetic construct; SITE 2: note = 2-Aminoisobutyric Acid; SITE 13: note = alpha-methyl-leucine; SITE 17: note = Lysine is chemically modified through conjugation of the epsilon-amino group of the Lysine side chain with (2-[2-(2-Amino-ethoxy)-ethoxy]-acetyl)-(gamma-Glu)-CO-(CH2) 16-CO2H; SITE 20: n
B6: Example 205 (peptide)
chain: B1 chain with X10F, I27L, X29A, E31P, S41T
modifications: Aib, Orn, αMeL, D-Ala; acylated lysine; amide; synthetic construct; SITE 2: note = 2-Aminoisobutyric Acid; SITE 12: note = L-ornithine; SITE 13: note = alpha-methyl-leucine; SITE 17: note = Lysine is chemically modified through conjugation of the epsilon-amino group of the Lysine side chain with (gamma-Glu)3-CO-(CH2)16-CO2H; SITE 20: note = 2-Am
B7: Example 231 (peptide)
chain: B1 chain with X10F, X12R, S41E
modifications: non-natural residues; lipidated Lys; C-terminal amide; synthetic construct; SITE 2: note = 2-Aminoisobutyric Acid; SITE 13: note = alpha-methyl-leucine; SITE 17: note = Lysine is chemically modified through conjugation of the epsilon-amino group of the Lysine side chain with (2-[2-(2-Amino-ethoxy)-ethoxy]-acetyl)-(gamma-Glu)-CO-(CH2) 16-CO2H; SITE 20: n
B8: Example 225 (peptide)
chain: B1 chain with X12R, S41E
modifications: non-natural residues, AEEA-γGlu-C18 diacid acyl on K, C-terminal amide; synthetic construct; SITE 2: note = 2-Aminoisobutyric Acid; SITE 10: note = 3-(4-Pyridyl)-L-alanine; SITE 13: note = alpha-methyl-leucine; SITE 17: note = Lysine is chemically modified through conjugation of the epsilon-amino group of the Lysine side chain with (2-[2-(2-Amino-ethoxy)-ethoxy]-acetyl)
B9: Example 204 (peptide)
chain: B1 chain with X10F, I27L, X29A, E31P, S41T
modifications: non-natural residues, (γGlu)2-C18 diacid lysine acylation, C-terminal amide; synthetic construct; SITE 2: note = 2-Aminoisobutyric Acid; SITE 12: note = L-ornithine; SITE 13: note = alpha-methyl-leucine; SITE 17: note = Lysine is chemically modified through conjugation of the epsilon-amino group of the Lysine side chain with (gamma-Glu)2-CO-(CH2)16-CO2H; SITE 20: note = 2-Am
B10: Example 222 (peptide)
chain: B1 chain with S41E
modifications: non-natural residues; Lys acylated C18 diacid; C-terminal amide; synthetic construct; SITE 2: note = 2-Aminoisobutyric Acid; SITE 10: note = 3-(4-Pyridyl)-L-alanine; SITE 12: note = L-ornithine; SITE 13: note = alpha-methyl-leucine; SITE 17: note = Lysine is chemically modified through conjugation of the epsilon-amino group of the Lysine side chain with (2-[2-(2-

Where a chain is given by its changes, count along the chain named.

hGLP-1R, sequence (P43220 24-463): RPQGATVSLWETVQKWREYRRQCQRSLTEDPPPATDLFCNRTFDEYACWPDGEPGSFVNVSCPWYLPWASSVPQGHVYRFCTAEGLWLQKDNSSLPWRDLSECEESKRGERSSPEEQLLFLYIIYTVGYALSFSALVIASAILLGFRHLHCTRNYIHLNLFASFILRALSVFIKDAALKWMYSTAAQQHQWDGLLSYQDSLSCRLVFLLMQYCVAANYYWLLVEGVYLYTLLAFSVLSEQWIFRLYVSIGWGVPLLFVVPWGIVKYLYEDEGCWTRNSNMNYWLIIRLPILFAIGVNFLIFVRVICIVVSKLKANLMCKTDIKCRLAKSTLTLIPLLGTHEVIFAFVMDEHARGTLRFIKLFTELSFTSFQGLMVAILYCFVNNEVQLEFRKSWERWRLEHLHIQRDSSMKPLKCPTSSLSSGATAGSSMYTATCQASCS
human GLP-1R (SNAP-GLP-1R expressed in HEK293 cells) (human), sequence (P43220 24-463): as above
human glucagon receptor (human), sequence (P47871 26-477): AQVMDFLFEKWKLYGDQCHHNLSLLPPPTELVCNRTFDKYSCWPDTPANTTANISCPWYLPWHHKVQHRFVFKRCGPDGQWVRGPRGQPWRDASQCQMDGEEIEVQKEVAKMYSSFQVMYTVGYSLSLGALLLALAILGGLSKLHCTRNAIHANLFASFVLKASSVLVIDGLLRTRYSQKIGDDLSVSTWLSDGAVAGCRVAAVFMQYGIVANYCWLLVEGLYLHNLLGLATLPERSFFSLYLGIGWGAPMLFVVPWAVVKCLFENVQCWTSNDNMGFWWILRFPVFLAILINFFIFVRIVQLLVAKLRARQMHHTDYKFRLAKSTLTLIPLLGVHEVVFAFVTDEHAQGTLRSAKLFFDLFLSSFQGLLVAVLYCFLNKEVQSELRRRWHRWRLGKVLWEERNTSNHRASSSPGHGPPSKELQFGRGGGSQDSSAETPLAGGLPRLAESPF

The first assay concerns the target human glucagon receptor (human) (UniProt P47871). Briefly: cell-based or functional assay.
B1 came in with a Relative cAMP EC50 of 1.57 nM and a cAMP Rel EC50, nM (1% HSA) of 373 nM.
On the same counts, the results for B2 are 4.22 nM and 937 nM.
In the same order, the values of B3 are 5.11 nM and 1570 nM.
In the same order, the values of B4 are 1.91 nM and 452 nM.
Turning to B5, the Relative cAMP EC50 amounted to 1.61 nM.
Consider B6, for which the Relative cAMP EC50 is 8.98 nM and the cAMP Rel EC50, nM (1% HSA) came to 397 nM.
In the same order, the values of B7 are 2.12 nM and 443 nM.
On the same counts, the results for B8 are 2.36 nM and 561 nM.
Molecule B9 came in with a Relative cAMP EC50 of 6.92 nM and a cAMP Rel EC50, nM (1% HSA) of 572 nM.
On the same counts, the results for B10 are 2.33 nM and 440 nM.

The next assay has as its target hGLP-1R (Homo sapiens, UniProt P43220). Description: cell-based or functional assay.
B1 came in with a Relative cAMP EC50 of 2.83 nM and a cAMP Rel EC50, nM (1% HSA) of 627 nM.
On the same counts, the results for B2 are 2.34 nM and 418 nM.
On the same counts, the results for B3 are 0.667 nM and 130 nM.
For the molecule B4, the Relative cAMP EC50 is 1.89 nM and the cAMP Rel EC50, nM (1% HSA) was 333 nM.
As for B5, the Relative cAMP EC50 was determined as 0.937 nM.
For B6, the Relative cAMP EC50 came out at 2.71 nM and the cAMP Rel EC50, nM (1% HSA) came to 234 nM.
Take B7: the Relative cAMP EC50 worked out at 1.3 nM and the cAMP Rel EC50, nM (1% HSA) stood at 223 nM.
Molecule B8 registered a Relative cAMP EC50 of 2.44 nM and a cAMP Rel EC50, nM (1% HSA) of 438 nM.
In the case of B9, the Relative cAMP EC50 was determined as 2.34 nM and the cAMP Rel EC50, nM (1% HSA) was determined as 306 nM.
B10 had a Relative cAMP EC50 of 3.64 nM and a cAMP Rel EC50, nM (1% HSA) of 753 nM.

Another assay has as its target human GLP-1R (SNAP-GLP-1R expressed in HEK293 cells) (human) (UniProt P43220). Description: cell-based or functional assay.
With B1, the GLP1R Internalization EC50 stood at 45.8 nM and the Internalization % TOP was found to be 59.3%.
Regarding B2, the GLP1R Internalization EC50 was determined as 114 nM and the Internalization % TOP turned out to be 59.4%.
B3: the GLP1R Internalization EC50 turned out to be 27.6 nM and the Internalization % TOP worked out at 58.2%.
The molecule B4 showed a GLP1R Internalization EC50 of 32.2 nM and an Internalization % TOP of 61.9%.
On the same counts, the results for B5 are 34.4 nM and 31.2%.
In the same order, the values of B6 are 49.4 nM and 67.7%.
On the same counts, the results for B7 are 36.1 nM and 27.7%.
Turning to B8, the GLP1R Internalization EC50 is 26 nM and the Internalization % TOP came to 56.7%.
On the same counts, the results for B9 are 66.4 nM and 45.5%.
In the same order, the values of B10 are 34.6 nM and 52.4%.

Another assay concerns the target T1, human GIP receptor (human). Description: cell-based or functional assay.
On to B1, for which the Relative cAMP EC50 worked out at 0.215 nM and the cAMP Rel EC50, nM (1% HSA) stood at 37.2 nM.
In the same order, the values of B2 are 0.17 nM and 39.7 nM.
In the same order, the values of B3 are 0.0897 nM and 15 nM.
On the same counts, the results for B4 are 0.114 nM and 21.5 nM.
Turning to B5, the Relative cAMP EC50 was found to be 0.0909 nM.
Molecule B6 yielded a Relative cAMP EC50 of 0.16 nM and a cAMP Rel EC50, nM (1% HSA) of 24.4 nM.
On the same counts, the results for B7 are 0.119 nM and 27.4 nM.
On the same counts, the results for B8 are 0.213 nM and 40.2 nM.
In the same order, the values of B9 are 0.181 nM and 16.7 nM.
As to B10, the Relative cAMP EC50 was 0.228 nM and the cAMP Rel EC50, nM (1% HSA) is 52.5 nM.
